Earlier results as cited in PMC3240149.

How the values were obtained:
[1] = target: TACE (ADAM-17) (Homo sapiens) (UniProt P78536)
MMP-3 (Homo sapiens) = MMP-3 (Homo sapiens) (UniProt P08254)
MMP-2 (Homo sapiens) = MMP-2 (Homo sapiens) (UniProt P08253)
Sequence of UniProt P08253 (P08253 110-660): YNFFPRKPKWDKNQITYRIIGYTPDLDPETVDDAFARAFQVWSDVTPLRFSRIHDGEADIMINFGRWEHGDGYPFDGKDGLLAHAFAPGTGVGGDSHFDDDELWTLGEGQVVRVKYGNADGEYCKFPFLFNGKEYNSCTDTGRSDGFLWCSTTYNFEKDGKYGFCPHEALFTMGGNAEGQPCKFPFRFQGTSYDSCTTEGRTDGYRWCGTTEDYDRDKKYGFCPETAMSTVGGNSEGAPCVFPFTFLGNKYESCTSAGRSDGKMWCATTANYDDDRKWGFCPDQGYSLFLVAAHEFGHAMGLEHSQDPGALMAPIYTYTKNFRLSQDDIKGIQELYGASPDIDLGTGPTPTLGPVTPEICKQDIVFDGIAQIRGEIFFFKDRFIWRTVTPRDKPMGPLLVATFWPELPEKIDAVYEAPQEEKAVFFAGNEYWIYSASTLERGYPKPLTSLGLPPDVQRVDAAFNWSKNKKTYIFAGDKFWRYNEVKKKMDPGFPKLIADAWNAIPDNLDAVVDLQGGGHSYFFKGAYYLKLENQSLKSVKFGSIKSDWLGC

Sequence of UniProt P78536 (P78536 215-671): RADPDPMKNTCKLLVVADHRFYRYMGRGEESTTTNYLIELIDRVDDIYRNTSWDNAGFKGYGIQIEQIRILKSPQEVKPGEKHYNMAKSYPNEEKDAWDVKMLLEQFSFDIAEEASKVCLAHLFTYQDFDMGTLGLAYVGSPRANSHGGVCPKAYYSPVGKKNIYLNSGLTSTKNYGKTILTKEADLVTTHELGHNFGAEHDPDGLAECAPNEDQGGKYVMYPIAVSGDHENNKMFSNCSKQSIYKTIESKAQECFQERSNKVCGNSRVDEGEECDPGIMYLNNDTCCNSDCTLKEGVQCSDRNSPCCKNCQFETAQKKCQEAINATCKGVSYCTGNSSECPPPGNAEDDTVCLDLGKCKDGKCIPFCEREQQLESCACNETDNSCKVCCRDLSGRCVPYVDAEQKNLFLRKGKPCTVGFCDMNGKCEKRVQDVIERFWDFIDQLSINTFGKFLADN
Sequence of UniProt P08254 (P08254 100-477): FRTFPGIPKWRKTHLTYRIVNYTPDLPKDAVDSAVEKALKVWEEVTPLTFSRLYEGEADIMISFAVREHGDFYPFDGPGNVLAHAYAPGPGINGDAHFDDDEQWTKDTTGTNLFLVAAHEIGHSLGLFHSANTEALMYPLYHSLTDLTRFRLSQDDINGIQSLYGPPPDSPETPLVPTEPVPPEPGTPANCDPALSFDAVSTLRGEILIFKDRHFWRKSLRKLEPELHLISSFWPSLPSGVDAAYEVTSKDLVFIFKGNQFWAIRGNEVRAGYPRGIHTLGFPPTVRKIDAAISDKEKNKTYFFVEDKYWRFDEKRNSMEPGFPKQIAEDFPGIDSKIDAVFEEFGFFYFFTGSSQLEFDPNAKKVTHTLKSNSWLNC

Row | Substance | Ki [1] [nM] | Ki (MMP-3 (Homo sapiens)) [nM] | Ki (MMP-2 (Homo sapiens)) [nM]
1 | TIMP-3 (from UniProt P35625) | 0.182 | 67 | –
2 | TIMP-2 (from UniProt P16035) | – | – | 1000
